From patent publication US6734169B2, “Apolipoprotein A-I agonists and their use to treat dyslipidemic disorders” (priority 1997, dated 2004)

Target: T1, LCAT (purified from human plasma) (Homo sapiens, UniProt P04180)
T1 construct: The reaction is initiated by addition of LCAT (purified from human plasma); from tissue
T1 sequence (P04180 25-440): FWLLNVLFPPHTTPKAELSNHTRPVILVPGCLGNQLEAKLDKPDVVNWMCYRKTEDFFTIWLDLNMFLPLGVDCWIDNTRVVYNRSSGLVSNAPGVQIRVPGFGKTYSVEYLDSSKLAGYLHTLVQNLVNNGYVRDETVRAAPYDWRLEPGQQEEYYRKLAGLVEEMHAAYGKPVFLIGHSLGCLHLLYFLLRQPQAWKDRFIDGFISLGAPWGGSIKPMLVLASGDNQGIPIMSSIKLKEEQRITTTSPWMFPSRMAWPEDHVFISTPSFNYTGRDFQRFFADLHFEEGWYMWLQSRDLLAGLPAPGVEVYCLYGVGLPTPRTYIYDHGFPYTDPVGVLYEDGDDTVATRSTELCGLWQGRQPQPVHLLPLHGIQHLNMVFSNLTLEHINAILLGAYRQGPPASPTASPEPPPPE
Test: LCAT activation assay
Assay type: biochemical
Details: LCAT activation as compared with native human ApoA-I (=100%); equivalent masses of peptide or ApoA-I; SUVs of EPC or POPC and radiolabelled cholesterol; listed as peptide 18AM4
Protocol: The peptides synthesized as described in Section 6, supra, were analyzed in vitro for their ability to activate LCAT. In the LCAT assay, substrate vesicles (small unilamellar vesicles or “SUVs”) composed of egg phophatidylcholine (EPC) or 1-Palmitoyl-2-oleyl-phosphatidylcholine (POPC) and radiolabelled cholesterol are preincubated with equivalent masses either of peptide or ApoA-I (isolated from human plasma). The reaction is initiated by addition of LCAT (purified from human plasma). Native ApoA-I, which was used as positive control, represents 100% activation activity. “Specific activity” (i.e., units of activity (LCAT activation)/unit of mass) of the peptides can be calculated as the concentration of peptide that achieves maximum LCAT activation. For example, a series of concentrations of the peptide (e.g., a limiting dilution) can be assayed to determine the “specific activity” for the peptide—the concentration which achieves maximal LCAT activation (i.e., percentage conversion of cholesterol to cholesterol ester) at a specific timepoint in the assay (e.g., 1 hr.). When plotting percentage conversion of cholesterol at, e.c., 1 hr., against the concentration of peptide used, the “specific activity” can be identified as the concentration of peptide that achieves a plateau on the plotted curve. […]

ACTIVITY (%) LCAT: less than 4%
Sequence: EWLEAFYKKVLEKLKELF [peptide 246]
